± gives the uncertainty stated by the source.
B1: Syntaxin-binding protein 4, residues 493 to 538; numbered along this chain, Q6ZWJ1 (parent)
chain: LDMDCLPYGWEEAYTADGIKYFINHVTQTTSWIHPVMSVLNLSRSE

Variants of: B1
Assay: abundance fitness (aPCA) (normalised: wild type 0, dead -1); higher = more abundant; growth selection in yeast, the domain comes from the species named
Settings: Homo sapiens

Abundance fitness, by site and new letter:
P7: W -0.629 ± 0.099 | Q -0.903 ± 0.14 | A -0.646 ± 0.091 | L -0.711 ± 0.095 | M -0.793 ± 0.12 | R -0.782 ± 0.094 | N -0.714 ± 0.16 | V -0.742 ± 0.088 | K -0.649 ± 0.13 | I -0.984 ± 0.17 | S -0.834 ± 0.1 | T -0.483 ± 0.12 | F -0.616 ± 0.13 | H -0.669 ± 0.15 | G -0.719 ± 0.086 | E -0.711 ± 0.098
A13: R -0.501 ± 0.08 | I -0.998 ± 0.21 | G -0.746 ± 0.081 | D -1.11 ± 0.18 | H -1.01 ± 0.17 | V -0.686 ± 0.084 | S -0.5 ± 0.088 | T -0.527 ± 0.11 | Y -0.914 ± 0.21 | W -0.766 ± 0.11 | N -0.774 ± 0.14 | E -0.923 ± 0.11 | C -0.676 ± 0.12 | Q -0.677 ± 0.13 | L -0.742 ± 0.091 | F -0.946 ± 0.19 | P -0.922 ± 0.11 | K -0.534 ± 0.11
C5: A 0.238 ± 0.084 | G -0.04 ± 0.076 | R -0.18 ± 0.078 | M -0.173 ± 0.11 | P -0.291 ± 0.12 | N -0.254 ± 0.12 | H -0.06 ± 0.14 | Y -0.268 ± 0.088 | F -0.11 ± 0.11 | I -0.113 ± 0.15 | V -0.155 ± 0.085 | S 0.142 ± 0.081 | D 0.321 ± 0.12 | E 0.234 ± 0.094 | W -0.533 ± 0.1 | K 0.076 ± 0.098
W10: G -0.716 ± 0.078 | I -0.596 ± 0.13 | F -0.796 ± 0.14 | Q -0.613 ± 0.11 | D -0.68 ± 0.13 | L -0.844 ± 0.092 | P -0.741 ± 0.1 | S -0.816 ± 0.096 | M -0.918 ± 0.13 | A -0.667 ± 0.087 | V -0.651 ± 0.087 | Y -0.774 ± 0.15 | N -0.615 ± 0.15 | C -1.01 ± 0.14 | R -0.863 ± 0.083 | T -0.869 ± 0.11
Y14: A -0.645 ± 0.09 | G -0.773 ± 0.087 | H -0.575 ± 0.11 | D -0.976 ± 0.14 | L -0.689 ± 0.083 | E -0.513 ± 0.11 | F -0.659 ± 0.14 | C -0.586 ± 0.1 | K -0.907 ± 0.14 | I -0.856 ± 0.12
G9: N -0.849 ± 0.14 | C -0.892 ± 0.12 | V -0.692 ± 0.081 | D -0.604 ± 0.086 | H -0.86 ± 0.15 | Y -0.826 ± 0.14 | L -0.636 ± 0.084 | F -0.926 ± 0.15 | E -0.184 ± 0.088 | P -0.397 ± 0.092 | I -0.459 ± 0.19 | T -0.833 ± 0.099 | W -0.699 ± 0.1 | A -0.803 ± 0.087 | Q -0.908 ± 0.13 | K -0.807 ± 0.11 | M -0.865 ± 0.12 | R -0.846 ± 0.088
E11: Q -0.4 ± 0.097 | D -0.528 ± 0.11 | K -0.535 ± 0.11 | A -0.747 ± 0.091 | R -0.537 ± 0.077 | G -0.827 ± 0.082 | I -0.502 ± 0.13 | L -0.771 ± 0.089 | T -0.733 ± 0.1 | C -0.861 ± 0.11 | Y -0.909 ± 0.14 | H -0.657 ± 0.15 | M -0.793 ± 0.11 | W -0.696 ± 0.09 | S -0.433 ± 0.081 | F -0.555 ± 0.12 | V -0.531 ± 0.083 | P -0.78 ± 0.11
L6: Q -0.817 ± 0.14 | R -0.644 ± 0.088 | K -0.266 ± 0.11 | V -0.511 ± 0.089 | Y -0.709 ± 0.16 | I -0.965 ± 0.2 | T -0.737 ± 0.12 | A -0.707 ± 0.094 | F -0.604 ± 0.17 | D -0.405 ± 0.15 | W -0.922 ± 0.11 | N -0.375 ± 0.16 | H -0.844 ± 0.22 | E -0.541 ± 0.1 | G -0.754 ± 0.087 | M -0.692 ± 0.12 | S -0.816 ± 0.1 | P -0.608 ± 0.11
Y8: L -0.367 ± 0.082 | K 0.109 ± 0.095 | R -0.34 ± 0.076 | E 0.326 ± 0.084 | A 0.198 ± 0.081 | Q -0.119 ± 0.1 | H -0.094 ± 0.098 | P 0.157 ± 0.08 | S 0.138 ± 0.075 | C -0.425 ± 0.093 | I -0.08 ± 0.094 | W -0.371 ± 0.091 | D 0.326 ± 0.1 | F -0.258 ± 0.098 | T -0.122 ± 0.086 | G -0.028 ± 0.073 | M -0.292 ± 0.099
E12: M -0.361 ± 0.12 | L -0.804 ± 0.099 | C -0.496 ± 0.1 | A -0.767 ± 0.1 | I -0.273 ± 0.13 | W -0.744 ± 0.1 | Y -0.794 ± 0.18 | H -0.795 ± 0.17 | V 0.12 ± 0.08 | Q -0.463 ± 0.12 | K -0.953 ± 0.13 | P -0.795 ± 0.14 | F -0.801 ± 0.15 | S -0.619 ± 0.093 | N -0.765 ± 0.19 | D -0.89 ± 0.15 | G -0.818 ± 0.083 | R -0.804 ± 0.081 | T -0.518 ± 0.1
D2: N -0.388 ± 0.094
